Reference: PMC9482650, “Quantitative fragmentomics allow affinity mapping of interactomes” (Nature Communications, 2022)

T1: APBA1_2, Q02410
T1 sequence (Q02410 742-832, limits assumed, looked up): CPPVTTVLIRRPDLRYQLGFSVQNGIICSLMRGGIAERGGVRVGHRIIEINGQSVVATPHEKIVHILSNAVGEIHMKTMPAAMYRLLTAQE

T2: APBA2_1, Q99767
T2 sequence (Q99767 563-664, limits assumed, looked up): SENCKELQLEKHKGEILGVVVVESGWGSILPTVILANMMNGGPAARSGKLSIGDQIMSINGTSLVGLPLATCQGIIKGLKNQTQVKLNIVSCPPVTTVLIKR

T3: DFNB31_1, Q9P202
T3 sequence (Q9P202 135-233, limits assumed, looked up): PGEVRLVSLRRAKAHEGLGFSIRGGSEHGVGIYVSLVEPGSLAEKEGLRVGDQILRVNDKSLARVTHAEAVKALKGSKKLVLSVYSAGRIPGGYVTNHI

T4: DFNB31_2, Q9P202
T4 sequence (Q9P202 274-371, limits assumed, looked up): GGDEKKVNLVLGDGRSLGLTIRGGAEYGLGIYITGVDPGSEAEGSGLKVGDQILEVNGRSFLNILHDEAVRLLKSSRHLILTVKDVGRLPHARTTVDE

T5: GRIP1_5, Q9Y3R0
T5 sequence (Q9Y3R0 568-668, limits assumed, looked up): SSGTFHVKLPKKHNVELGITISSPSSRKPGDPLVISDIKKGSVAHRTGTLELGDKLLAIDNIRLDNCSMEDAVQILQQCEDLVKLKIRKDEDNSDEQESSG

T6: HTRA4, P83105
T6 sequence (P83105 378-476, limits assumed, looked up): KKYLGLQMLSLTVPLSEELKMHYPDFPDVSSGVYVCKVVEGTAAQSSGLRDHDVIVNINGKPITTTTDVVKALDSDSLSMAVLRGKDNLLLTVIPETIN

T7: LNX2_3, Q8N448
T7 sequence (Q8N448 463-564, limits assumed, looked up): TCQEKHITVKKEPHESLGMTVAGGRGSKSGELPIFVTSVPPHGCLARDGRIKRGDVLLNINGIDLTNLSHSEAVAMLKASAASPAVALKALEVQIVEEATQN

T8: LRRC7, Q96NW7
T8 sequence (Q96NW7 1440-1537, limits assumed, looked up): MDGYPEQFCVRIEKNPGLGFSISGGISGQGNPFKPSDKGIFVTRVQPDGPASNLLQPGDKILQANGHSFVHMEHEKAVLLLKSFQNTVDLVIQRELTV

T9: NHERF3_1, Q5T2W1
T9 sequence (Q5T2W1 4-100, limits assumed, looked up): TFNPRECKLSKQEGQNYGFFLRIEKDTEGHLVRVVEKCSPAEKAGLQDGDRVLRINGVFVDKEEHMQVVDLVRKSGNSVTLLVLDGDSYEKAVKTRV

T10: PDZD7_3, Q9H5P4
T10 sequence (Q9H5P4 857-944, limits assumed, looked up): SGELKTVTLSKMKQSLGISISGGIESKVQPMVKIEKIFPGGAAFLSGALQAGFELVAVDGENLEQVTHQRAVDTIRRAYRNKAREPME

T11: SIPA1L2, Q9P2F8
T11 sequence (Q9P2F8 945-1036, limits assumed, looked up): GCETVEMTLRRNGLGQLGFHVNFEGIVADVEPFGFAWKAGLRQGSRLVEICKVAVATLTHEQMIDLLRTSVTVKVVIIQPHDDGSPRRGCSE

T12: TIAM2, Q8IVF5
T12 sequence (Q8IVF5 885-986, limits assumed, looked up): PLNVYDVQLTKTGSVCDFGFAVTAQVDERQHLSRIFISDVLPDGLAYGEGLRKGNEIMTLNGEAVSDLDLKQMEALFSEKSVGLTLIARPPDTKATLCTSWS

T13: TJP3_3, O95049
T13 sequence (O95049 375-456, limits assumed, looked up): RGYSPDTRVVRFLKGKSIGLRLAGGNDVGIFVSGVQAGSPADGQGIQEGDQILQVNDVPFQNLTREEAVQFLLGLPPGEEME

B1: APPL1, Q9UKG1 (peptide)
chain: EGGKKRESEA
B2: EZH1, Q92800 (peptide)
chain: VGIERETDVL

target: T1, APBA1_2, Q02410; test: holdup assay; set-up: key: below the threshold = too weak to quantify, mostly under pKd 3.1 to 4; conditions: plain residues with an end cap or a label only (N-terminal biotin on a linker: ado-ado)

| Binder | pKd |
| --- | --- |
| B1 | below the threshold |
| B2 | below the threshold |

target: T2, APBA2_1, Q99767; test: holdup assay; set-up: key: below the threshold = too weak to quantify, mostly under pKd 3.1 to 4; conditions: plain residues with an end cap or a label only (N-terminal biotin on a linker: ado-ado)

| Binder | pKd |
| --- | --- |
| B1 | below the threshold |
| B2 | below the threshold |

target: CASK, O14936; test: holdup assay; set-up: key: below the threshold = too weak to quantify, mostly under pKd 3.1 to 4; conditions: plain residues with an end cap or a label only (N-terminal biotin on a linker: ado-ado)
Sequence (O14936 487-570): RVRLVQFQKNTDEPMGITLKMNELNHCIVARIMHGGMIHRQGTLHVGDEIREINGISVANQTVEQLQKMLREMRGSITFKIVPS

| Binder | pKd |
| --- | --- |
| B1 | below the threshold |
| B2 | below the threshold |

target: T3, DFNB31_1, Q9P202; test: holdup assay; set-up: key: below the threshold = too weak to quantify, mostly under pKd 3.1 to 4; conditions: plain residues with an end cap or a label only (N-terminal biotin on a linker: ado-ado)

| Binder | pKd |
| --- | --- |
| B1 | 3.63 |
| B2 | below the threshold |

target: T4, DFNB31_2, Q9P202; test: holdup assay; set-up: key: below the threshold = too weak to quantify, mostly under pKd 3.1 to 4; conditions: plain residues with an end cap or a label only (N-terminal biotin on a linker: ado-ado)

| Binder | pKd |
| --- | --- |
| B1 | below the threshold |
| B2 | below the threshold |

target: DLG1_1, Q12959; test: holdup assay; set-up: key: below the threshold = too weak to quantify, mostly under pKd 3.1 to 4; conditions: plain residues with an end cap or a label only (N-terminal biotin on a linker: ado-ado)

| Binder | pKd |
| --- | --- |
| B1 | below the threshold |
| B2 | 3.6 |

target: DLG1_2, Q12959; test: holdup assay; set-up: key: below the threshold = too weak to quantify, mostly under pKd 3.1 to 4; conditions: plain residues with an end cap or a label only (N-terminal biotin on a linker: ado-ado)

| Binder | pKd |
| --- | --- |
| B1 | below the threshold |
| B2 | 3.85 |

target: DLG1_3, Q12959; test: holdup assay; set-up: key: below the threshold = too weak to quantify, mostly under pKd 3.1 to 4; conditions: plain residues with an end cap or a label only (N-terminal biotin on a linker: ado-ado)

| Binder | pKd |
| --- | --- |
| B1 | below the threshold |
| B2 | below the threshold |

target: GIPC2, Q8TF65; test: holdup assay; set-up: key: below the threshold = too weak to quantify, mostly under pKd 3.1 to 4; conditions: plain residues with an end cap or a label only (N-terminal biotin on a linker: ado-ado)
Sequence (Q8TF65 112-203): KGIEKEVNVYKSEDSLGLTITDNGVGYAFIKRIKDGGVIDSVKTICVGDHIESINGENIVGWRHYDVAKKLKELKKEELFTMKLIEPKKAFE

| Binder | pKd |
| --- | --- |
| B1 | below the threshold |
| B2 | below the threshold |

target: T5, GRIP1_5, Q9Y3R0; test: holdup assay; set-up: key: below the threshold = too weak to quantify, mostly under pKd 3.1 to 4; conditions: plain residues with an end cap or a label only (N-terminal biotin on a linker: ado-ado)

| Binder | pKd |
| --- | --- |
| B1 | below the threshold |
| B2 | below the threshold |

target: GRIP2_6, Q9C0E4; test: holdup assay; set-up: key: below the threshold = too weak to quantify, mostly under pKd 3.1 to 4; conditions: plain residues with an end cap or a label only (N-terminal biotin on a linker: ado-ado)
Sequence (Q9C0E4 648-740): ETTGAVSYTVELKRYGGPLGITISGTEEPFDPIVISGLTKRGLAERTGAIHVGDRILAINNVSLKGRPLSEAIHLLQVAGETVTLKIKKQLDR

| Binder | pKd |
| --- | --- |
| B1 | below the threshold |
| B2 | below the threshold |

target: T6, HTRA4, P83105; test: holdup assay; set-up: key: below the threshold = too weak to quantify, mostly under pKd 3.1 to 4; conditions: plain residues with an end cap or a label only (N-terminal biotin on a linker: ado-ado)

| Binder | pKd |
| --- | --- |
| B1 | below the threshold |
| B2 | below the threshold |

target: Inadl_3, Q8NI35; test: holdup assay; set-up: key: below the threshold = too weak to quantify, mostly under pKd 3.1 to 4; conditions: plain residues with an end cap or a label only (N-terminal biotin on a linker: ado-ado)
Sequence (Q8NI35 359-469): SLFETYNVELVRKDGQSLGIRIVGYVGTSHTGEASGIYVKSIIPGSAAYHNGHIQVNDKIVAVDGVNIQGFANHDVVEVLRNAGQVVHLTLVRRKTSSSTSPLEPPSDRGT

| Binder | pKd |
| --- | --- |
| B1 | below the threshold |
| B2 | below the threshold |

target: T7, LNX2_3, Q8N448; test: holdup assay; set-up: key: below the threshold = too weak to quantify, mostly under pKd 3.1 to 4; conditions: plain residues with an end cap or a label only (N-terminal biotin on a linker: ado-ado)

| Binder | pKd |
| --- | --- |
| B1 | below the threshold |
| B2 | below the threshold |

target: T8, LRRC7, Q96NW7; test: holdup assay; set-up: key: below the threshold = too weak to quantify, mostly under pKd 3.1 to 4; conditions: plain residues with an end cap or a label only (N-terminal biotin on a linker: ado-ado)

| Binder | pKd |
| --- | --- |
| B1 | below the threshold |
| B2 | below the threshold |

target: MAGI2_6, Q86UL8; test: holdup assay; set-up: key: below the threshold = too weak to quantify, mostly under pKd 3.1 to 4; conditions: plain residues with an end cap or a label only (N-terminal biotin on a linker: ado-ado)
Sequence (Q86UL8 1141-1229): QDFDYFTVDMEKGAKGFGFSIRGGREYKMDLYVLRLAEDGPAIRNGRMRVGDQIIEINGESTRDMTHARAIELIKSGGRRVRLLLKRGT

| Binder | pKd |
| --- | --- |
| B1 | below the threshold |
| B2 | below the threshold |

target: MAST1, Q9Y2H9; test: holdup assay; set-up: key: below the threshold = too weak to quantify, mostly under pKd 3.1 to 4; conditions: plain residues with an end cap or a label only (N-terminal biotin on a linker: ado-ado)
Sequence (Q9Y2H9 962-1065): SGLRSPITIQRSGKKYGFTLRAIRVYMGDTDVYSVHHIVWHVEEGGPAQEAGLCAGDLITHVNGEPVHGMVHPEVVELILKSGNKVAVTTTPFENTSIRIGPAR

| Binder | pKd |
| --- | --- |
| B1 | 4.12 |
| B2 | below the threshold |

target: NHERF2_2, Q15599; test: holdup assay; set-up: key: below the threshold = too weak to quantify, mostly under pKd 3.1 to 4; conditions: plain residues with an end cap or a label only (N-terminal biotin on a linker: ado-ado)
Sequence (Q15599 142-238): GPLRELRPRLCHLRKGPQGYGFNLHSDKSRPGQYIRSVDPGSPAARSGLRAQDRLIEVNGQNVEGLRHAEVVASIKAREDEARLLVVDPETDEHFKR

| Binder | pKd |
| --- | --- |
| B1 | below the threshold |
| B2 | 3.6 |

target: T9, NHERF3_1, Q5T2W1; test: holdup assay; set-up: key: below the threshold = too weak to quantify, mostly under pKd 3.1 to 4; conditions: plain residues with an end cap or a label only (N-terminal biotin on a linker: ado-ado)

| Binder | pKd |
| --- | --- |
| B1 | below the threshold |
| B2 | below the threshold |

target: NHERF4_2, Q86UT5; test: holdup assay; set-up: key: below the threshold = too weak to quantify, mostly under pKd 3.1 to 4; conditions: plain residues with an end cap or a label only (N-terminal biotin on a linker: ado-ado)
Sequence (Q86UT5 220-308): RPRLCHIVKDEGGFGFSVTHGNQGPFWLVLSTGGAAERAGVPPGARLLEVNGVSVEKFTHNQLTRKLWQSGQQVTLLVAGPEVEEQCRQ

| Binder | pKd |
| --- | --- |
| B1 | below the threshold |
| B2 | below the threshold |

target: T10, PDZD7_3, Q9H5P4; test: holdup assay; set-up: key: below the threshold = too weak to quantify, mostly under pKd 3.1 to 4; conditions: plain residues with an end cap or a label only (N-terminal biotin on a linker: ado-ado)

| Binder | pKd |
| --- | --- |
| B1 | 3.69 |
| B2 | below the threshold |

target: SCRIB_1, Q14160; test: holdup assay; set-up: key: below the threshold = too weak to quantify, mostly under pKd 3.1 to 4; conditions: plain residues with an end cap or a label only (N-terminal biotin on a linker: ado-ado)
Sequence (Q14160 718-814): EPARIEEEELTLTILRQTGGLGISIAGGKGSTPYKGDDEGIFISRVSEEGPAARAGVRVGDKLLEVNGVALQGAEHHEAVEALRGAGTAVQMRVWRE

| Binder | pKd |
| --- | --- |
| B1 | below the threshold |
| B2 | below the threshold |

target: T11, SIPA1L2, Q9P2F8; test: holdup assay; set-up: key: below the threshold = too weak to quantify, mostly under pKd 3.1 to 4; conditions: plain residues with an end cap or a label only (N-terminal biotin on a linker: ado-ado)

| Binder | pKd |
| --- | --- |
| B1 | below the threshold |
| B2 | below the threshold |

target: T12, TIAM2, Q8IVF5; test: holdup assay; set-up: key: below the threshold = too weak to quantify, mostly under pKd 3.1 to 4; conditions: plain residues with an end cap or a label only (N-terminal biotin on a linker: ado-ado)

| Binder | pKd |
| --- | --- |
| B1 | 4.02 |
| B2 | 3.49 |

target: T13, TJP3_3, O95049; test: holdup assay; set-up: key: below the threshold = too weak to quantify, mostly under pKd 3.1 to 4; conditions: plain residues with an end cap or a label only (N-terminal biotin on a linker: ado-ado)

| Binder | pKd |
| --- | --- |
| B1 | below the threshold |
| B2 | below the threshold |
